# Measurements published in patent publication CN117866087A.
# B1: 实施例3纯化后的重组抗体(重组抗pTau181单克隆抗体) (antibody, mouse IgG1, kappa, V domains shown)
# VH: LQQPGSEYARPGASVKLSCKASGYTFTSYWMHWVKQRHGQLLEWIGNIYPGSGSSNYDEKFKSKGTLTVDTSSSTAYMHLSSLTSEDSAVYYCTRSGWLLRDYAMDYWGQGTSVTVSS
# VL: DVLMTQTPLSLPVSLGDQASISCRSSQSIVHSNGNTYLEWYLQKPGQSPKLLIYKVSTRFSGVPDRFSGSGSGTDFTLKISRVEAEDLGVYYCFQGSHVPYTFGGGTKLEIKA
# modifications: 在实施例4中偶联藻红蛋白荧光素(方案1)或偶联微球(方案2)
# Experiments:
# pTau181标准品 [1] = test: bead sandwich flow cytometry; Tau-2 on beads as capture, PE-labelled anti-pTau181 antibody as detector, 5μg/mL pTau181 standard
# pTau181标准品 [2] = test: bead sandwich flow cytometry; Tau-3 on beads as capture, PE-labelled anti-pTau181 antibody as detector, 5μg/mL pTau181 standard
binder,measurement,setting,value
B1,荧光信号强度,pTau181标准品 [1],343000
same,荧光信号强度,pTau181标准品 [2],420000
